{"source": "paper doi:10.1101/209643", "about": "(bioRxiv, 2017)"}
{"biological_target": "the molecule itself", "experiment": "TIRF microscopy of filament polymerisation"}
{"protein": "Cdc11-containing septin complex (Cdc10, Cdc3, Cdc12, Cdc11), wild type (complex) chain 1: MSAATATAAPVPPPVGISNLPNQRYKIVNEEGGTFTVMLCGESGLGKTTFINTLFQTVLKRADGQQHRQEPIRKTVEIDITRALLEEKHFELRVNVIDTPGFGDNVNNNKAWQPLVDFIDDQHDSYMRQEQQPYRTKKFDLRVHAVLYFIRPTGHGLKPIDIETMKRLSTRANLIPVIAKADTLTAQELQQFKSRIRQVIEAQEIRIFTPPLDADSKEDAKSGSNPDSAAVEHARQLIEAMPFAIVGSEKKFDNGQGTQVVARKYPWGLVEIENDSHCDFRKLRALLLRTYLLDLISTTQEMHYETYRRLRLEGHENTGEGNEDFTLPAIAPARKLSHNPRYKEEENALKKYFTDQVKAEEQRFRQWEQNIVNERIRLNGDLEEIQGKVKKLEEQVKSLQVKKSHLK chain 2: MDPLSSVQPASYVGFDTITNQIEHRLLKKGFQFNIMVVGQSGLGKSTLINTLFASHLIDSATGDDISALPVTKTTEMKISTHTLVEDRVRLNINVIDTPGFGDFIDNSKAWEPIVKYIKEQHSQYLRKELTAQRERFITDTRVHAILYFLQPNGKELSRLDVEALKRLTEIANVIPVIGKSDTLTLDERTEFRELIQNEFEKYNFKIYPYDSEELTDEELELNRSVRSIIPFAVVGSENEIEINGETFRGRKTRWSAINVEDINQCDFVYLREFLIRTHLQDLIETTSYIHYEGFRARQLIALKENANSRSSAHMSSNAIQR chain 3: MSLKEEQVSIKQDPEQEERQHDQFNDVQIKQESQDHDGVDSQYTNGTQNDDSERFEAAESDVKVEPGLGMGITSSQSEKGQVLPDQPEIKFIRRQINGYVGFANLPKQWHRRSIKNGFSFNLLCVGPDGIGKTTLMKTLFNNDDIEANLVKDYEEELANDQEEEEGQGEGHENQSQEQRHKVKIKSYESVIEENGVKLNLNVIDTEGFGDFLNNDQKSWDPIIKEIDSRFDQYLDAENKINRHSINDKRIHACLYFIEPTGHYLKPLDLKFMQSVYEKCNLIPVIAKSDILTDEEILSFKKTIMNQLIQSNIELFKPPIYSNDDAENSHLSERLFSSLPYAVIGSNDIVENYSGNQVRGRSYPWGVIEVDNDNHSDFNLLKNLLIKQFMEELKERTSKILYENYRSSKLAKLGIKQDNSVFKEFDPISKQQEEKTLHEAKLAKLEIEMKTVFQQKVSEKEKKLQKSETELFARHKEMKEKLTKQLKALEDKKKQLELSINSASPNVNHSPVPTKKKGFLR chain 4: MSGIIDASSALRKRKHLKRGITFTVMIVGQSGSGRSTFINTLCGQQVVDTSTTILLPTDTSTEIDLQLREETVELEDDEGVKIQLNIIDTPGFGDSLDNSPSFEIISDYIRHQYDEILLEESRVRRNPRFKDGRVHCCLYLINPTGHGLKEIDVEFIRQLGSLVNIIPVISKSDSLTRDELKLNKKLIMEDIDRWNLPIYNFPFDEDEISDEDYETNMYLRTLLPFAIIGSNEVYEMGGDVGTIRGRKYPWGILDVEDSSISDFVILRNALLISHLHDLKNYTHEILYERYRTEALSGESVAAESIRPNLTKLNGSSSSSTTTRRNTNPFKQSNNINNDVLNPASDMHGQSTGENNETYMTREEQIRLEEERLKAFEERVQQELLLKRQELLQREKELREIEARLEKEAKIKQEE", "binding result": "binds"}
{"protein": "Cdc11 D65T septin complex (Cdc10, Cdc3, Cdc12, Cdc11 D65T-GFP) (complex) chain 1: MSAATATAAPVPPPVGISNLPNQRYKIVNEEGGTFTVMLCGESGLGKTTFINTLFQTVLKRADGQQHRQEPIRKTVEIDITRALLEEKHFELRVNVIDTPGFGDNVNNNKAWQPLVDFIDDQHDSYMRQEQQPYRTKKFDLRVHAVLYFIRPTGHGLKPIDIETMKRLSTRANLIPVIAKADTLTAQELQQFKSRIRQVIEAQEIRIFTPPLDADSKEDAKSGSNPDSAAVEHARQLIEAMPFAIVGSEKKFDNGQGTQVVARKYPWGLVEIENDSHCDFRKLRALLLRTYLLDLISTTQEMHYETYRRLRLEGHENTGEGNEDFTLPAIAPARKLSHNPRYKEEENALKKYFTDQVKAEEQRFRQWEQNIVNERIRLNGDLEEIQGKVKKLEEQVKSLQVKKSHLK chain 2: MDPLSSVQPASYVGFDTITNQIEHRLLKKGFQFNIMVVGQSGLGKSTLINTLFASHLIDSATGDDISALPVTKTTEMKISTHTLVEDRVRLNINVIDTPGFGDFIDNSKAWEPIVKYIKEQHSQYLRKELTAQRERFITDTRVHAILYFLQPNGKELSRLDVEALKRLTEIANVIPVIGKSDTLTLDERTEFRELIQNEFEKYNFKIYPYDSEELTDEELELNRSVRSIIPFAVVGSENEIEINGETFRGRKTRWSAINVEDINQCDFVYLREFLIRTHLQDLIETTSYIHYEGFRARQLIALKENANSRSSAHMSSNAIQR chain 3: MSLKEEQVSIKQDPEQEERQHDQFNDVQIKQESQDHDGVDSQYTNGTQNDDSERFEAAESDVKVEPGLGMGITSSQSEKGQVLPDQPEIKFIRRQINGYVGFANLPKQWHRRSIKNGFSFNLLCVGPDGIGKTTLMKTLFNNDDIEANLVKDYEEELANDQEEEEGQGEGHENQSQEQRHKVKIKSYESVIEENGVKLNLNVIDTEGFGDFLNNDQKSWDPIIKEIDSRFDQYLDAENKINRHSINDKRIHACLYFIEPTGHYLKPLDLKFMQSVYEKCNLIPVIAKSDILTDEEILSFKKTIMNQLIQSNIELFKPPIYSNDDAENSHLSERLFSSLPYAVIGSNDIVENYSGNQVRGRSYPWGVIEVDNDNHSDFNLLKNLLIKQFMEELKERTSKILYENYRSSKLAKLGIKQDNSVFKEFDPISKQQEEKTLHEAKLAKLEIEMKTVFQQKVSEKEKKLQKSETELFARHKEMKEKLTKQLKALEDKKKQLELSINSASPNVNHSPVPTKKKGFLR chain 4: MSGIIDASSALRKRKHLKRGITFTVMIVGQSGSGRSTFINTLCGQQVVDTSTTILLPTDTSTEITLQLREETVELEDDEGVKIQLNIIDTPGFGDSLDNSPSFEIISDYIRHQYDEILLEESRVRRNPRFKDGRVHCCLYLINPTGHGLKEIDVEFIRQLGSLVNIIPVISKSDSLTRDELKLNKKLIMEDIDRWNLPIYNFPFDEDEISDEDYETNMYLRTLLPFAIIGSNEVYEMGGDVGTIRGRKYPWGILDVEDSSISDFVILRNALLISHLHDLKNYTHEILYERYRTEALSGESVAAESIRPNLTKLNGSSSSSTTTRRNTNPFKQSNNINNDVLNPASDMHGQSTGENNETYMTREEQIRLEEERLKAFEERVQQELLLKRQELLQREKELREIEARLEKEAKIKQEE", "binding result": "binds"}
{"protein": "Cdc12 T75A septin complex (Cdc10, Cdc3, Cdc12 T75A, Cdc11) (complex) chain 1: MSAATATAAPVPPPVGISNLPNQRYKIVNEEGGTFTVMLCGESGLGKTTFINTLFQTVLKRADGQQHRQEPIRKAVEIDITRALLEEKHFELRVNVIDTPGFGDNVNNNKAWQPLVDFIDDQHDSYMRQEQQPYRTKKFDLRVHAVLYFIRPTGHGLKPIDIETMKRLSTRANLIPVIAKADTLTAQELQQFKSRIRQVIEAQEIRIFTPPLDADSKEDAKSGSNPDSAAVEHARQLIEAMPFAIVGSEKKFDNGQGTQVVARKYPWGLVEIENDSHCDFRKLRALLLRTYLLDLISTTQEMHYETYRRLRLEGHENTGEGNEDFTLPAIAPARKLSHNPRYKEEENALKKYFTDQVKAEEQRFRQWEQNIVNERIRLNGDLEEIQGKVKKLEEQVKSLQVKKSHLK chain 2: MDPLSSVQPASYVGFDTITNQIEHRLLKKGFQFNIMVVGQSGLGKSTLINTLFASHLIDSATGDDISALPVTKTTEMKISTHTLVEDRVRLNINVIDTPGFGDFIDNSKAWEPIVKYIKEQHSQYLRKELTAQRERFITDTRVHAILYFLQPNGKELSRLDVEALKRLTEIANVIPVIGKSDTLTLDERTEFRELIQNEFEKYNFKIYPYDSEELTDEELELNRSVRSIIPFAVVGSENEIEINGETFRGRKTRWSAINVEDINQCDFVYLREFLIRTHLQDLIETTSYIHYEGFRARQLIALKENANSRSSAHMSSNAIQR chain 3: MSLKEEQVSIKQDPEQEERQHDQFNDVQIKQESQDHDGVDSQYTNGTQNDDSERFEAAESDVKVEPGLGMGITSSQSEKGQVLPDQPEIKFIRRQINGYVGFANLPKQWHRRSIKNGFSFNLLCVGPDGIGKTTLMKTLFNNDDIEANLVKDYEEELANDQEEEEGQGEGHENQSQEQRHKVKIKSYESVIEENGVKLNLNVIDTEGFGDFLNNDQKSWDPIIKEIDSRFDQYLDAENKINRHSINDKRIHACLYFIEPTGHYLKPLDLKFMQSVYEKCNLIPVIAKSDILTDEEILSFKKTIMNQLIQSNIELFKPPIYSNDDAENSHLSERLFSSLPYAVIGSNDIVENYSGNQVRGRSYPWGVIEVDNDNHSDFNLLKNLLIKQFMEELKERTSKILYENYRSSKLAKLGIKQDNSVFKEFDPISKQQEEKTLHEAKLAKLEIEMKTVFQQKVSEKEKKLQKSETELFARHKEMKEKLTKQLKALEDKKKQLELSINSASPNVNHSPVPTKKKGFLR chain 4: MSGIIDASSALRKRKHLKRGITFTVMIVGQSGSGRSTFINTLCGQQVVDTSTTILLPTDTSTEIDLQLREETVELEDDEGVKIQLNIIDTPGFGDSLDNSPSFEIISDYIRHQYDEILLEESRVRRNPRFKDGRVHCCLYLINPTGHGLKEIDVEFIRQLGSLVNIIPVISKSDSLTRDELKLNKKLIMEDIDRWNLPIYNFPFDEDEISDEDYETNMYLRTLLPFAIIGSNEVYEMGGDVGTIRGRKYPWGILDVEDSSISDFVILRNALLISHLHDLKNYTHEILYERYRTEALSGESVAAESIRPNLTKLNGSSSSSTTTRRNTNPFKQSNNINNDVLNPASDMHGQSTGENNETYMTREEQIRLEEERLKAFEERVQQELLLKRQELLQREKELREIEARLEKEAKIKQEE", "binding result": "binds"}
